In article doi:10.1101/2023.05.28.542642 (bioRxiv, 2023):
Ends that are not written are not given here.

Biological target: calmodulin (recombinant bovine CaM) (bovine, UniProt P62157 1-149)
Experiment: fluorescence polarisation

{BODIPY TR‑X}-KKKKKRFSFKKSFKLSGFSFKKNKK [MARCKS effector domain (aa 151-175) labeled with BODIPY TR]
binding result: binds
